Earlier results, collected in article PMC5956149.

Molecular target: CheA (Escherichia coli) (UniProt P07363)
Settings: cited from earlier work

In the case of CheA (from UniProt P07363), the Kd is listed as 400 nM.
